Reference: PMC5084080

Biological target: LarB1-His (Rhodococcus jostii)
Assay: BLI

Kd: 440 nM
Substance: LarA-MBP (from UniProt H7C8I3 1-46) (natural protein)
